According to paper doi:10.1101/2024.11.22.622898:

Biological target: Retromer (recombinant trimer) (human) (UniProt Q96QK1)
Experiment: ITC

Substance	Kd [µM]
DENND4C peptide 1189-1206	15.4
recombinant full-length human TBC1D13 (from UniProt Q9NVG8 1-400) (natural protein)	6.3
